# The DeepSol protein solubility set
# Experiment: soluble on expression in E. coli; label from the status in PepcDB or PDB records
row,Sequence,soluble on expression in E. coli
1,MGHHHHHHSHMWTPTEEEKYGVVICSFRGSVPQGLVLEIGETVQILEKCEGWYRGVSTKKPNVKGIFPANYIHLKKAIVSNRGQYETVVPLEDSIVTEVTATLQEWASLWKQLYVKHKVDLFYKLRHVMNELIDLRRQLLSGHLTQDQVREVKRHITVRLDWGNEHLGLDLVPRKDFEVVDSDQISVSDLYKMHL,not soluble
2,MLPFVFNADDDGKRVQNEEGNYDPTDHQRQMEDYYKQYEEQRVANSFHNTTGRPDLVAMQARLAETEQAIHRLNEEKKQPPPGFPIMTTPATQPEISIPRSGENKSSRSPSWAREARRSRSRSRDRRGGRSRSRSPSRRRTSRDRRDDRSSRRRRGPIINQLS,soluble
3,MNVTFETTICAWDEKIPALLIRLVNTLLFCRTEEELRQSINKLRETAELDEFFTYGYGSHHFWCNQRISKGSMQFIQSRLFIATF,not soluble
4,MSLSQIVAEVDGYKVTKEELDTLFHVFWKRITHLSSAKPTQEDKRIFLIDYVADLLILKEAKKMGIEVSEKEINDFIRKYVGRKIKEKSVINAVKAEILVEKLVDKLMKEQELNPSEDILRAYYEFYKREFYRPSSVKLLGIYVKSKKEAERISQILKQGEVPSTEDVKVSKPLWYSIPTLPKYIRRNFRTLSVGEVSKPIKINDGYLVFKILDKKPAGFIPFERAKSLVKKMYLKEKRKEVFKKWLSEVLKKYQVRSTGKEGHHHHHH,not soluble
5,MGSDKIHHHHHHMPTDHSFQIKPSQAAPLTSQQLYRKCDLKELSTDCQSTAELTPLDDIVGQERAQQAVEFAMGIKEKGYNIYAIGQNGLGKRTMMLRYLNRHEPSEHSLYDWCYVVNFDDTRSPKVLKLAAGSGLEFKKAIEKLMLKLVKALPLAFDNEMYYARAEKLKSQLAQKQEAALTELSEEAKQKGISLSLTLQGDYQMIALNGEEPHDEYSFTALTETERNQFESNINGLEVKLRNIIRQNTEWEEEFSDTQQEHDEQVAKDVLIHFFKPLKDKYKHQPEVRAFLTGMQADILDNLDIFLEESEEQLALAYASLEKKMPRRYQVNVLVCQGAQKFPIVVEESPSYHSLFGYVENATFRGTVFTDFSLIRSGSLHKANGGVLLMDAVKVLERPYVWDGLKRALRSRKLDLSSLEREVSLSGTISLAPEPIPLDVKIILFGDHETYQLYNTMIQILVNYLELPLILKM,not soluble
6,SAQDVDECSLGANPCEHAGKCINTLGSFECQCLQGYTGPRCEIDVNECVSNPCQNDATCLDQIGEFQCICMPGYEGVHCEVNTDECASSPCLHNGRCLDKINEFQCECPTGFTGHLCQVDLHHILDAQKMVWNHR,soluble
7,MSLKILFSPSESKNENCTKNPIDENSFIFKELFPYRMEALKHYGEFIKNASLKNLQELFGIKNENEIDKFKHDLKQAPTQEAIMLYTGVSYEYLNFKALDKKSQAYILENTLIFSNLFGVVRANDTLPFYKFKQGAKIGNFTIEKFYKEHFSKALDEYLENEEILDLRAGFYDKFYTPKKKFYTYKFVKNGKVISHFAKAYRGILLSISAKNQVKNNKELLANLPSNLKLKEIQIKGLKEEIALEILDEGHHHHHH,soluble
8,MNTTLFRWPVRVYYEDTDAGGVVYHASYVAFYERARTEMLRHHHFSQQALMAERVAFVVRKMTVEYYAPARLDDMLEIQTEITSMRGTSLVFTQRIVNAENTLLNEAEVLVVCVDPLKMKPRALPKSIVAEFKQ,soluble
9,MSLRLDKFIAENVGLTRSQATKAIRQSAVKINGEIVKSGSVQISQEDEIYFEDELLTWIEEGQYFMLNKPQGCVCSNDDGDYPTIYQFFDYPLAGKLHSAGRLDVDTTGLVLLTDDGQWSHRITSPKHHCEKTYLVTLADPVEENYSAACAEGILLRGEKEPTKPAKLEILDDYNVNLTISEGRYHQVKRMFAALGNKVVGLHRWKIGDVVLDESLEEGEYRPLTQSEIEKLVEGGSHHHHHH,soluble
10,MTWNESHGERIIRRFERDIFPWIGSKPISEIAAPELLATVRRIESRGAVETAHRALGNCGQVFRYAIATARATRDISADLRGALPPVKGEHLEHHHHHH,not soluble
11,MADESYDALSRGNKSNLRNEVVDMKKKPFSILFMGIEDYATKGQKGRSDSLIVVTLDPKNKTMKMLSIPRDTRVQLAGDTTGSKTKINAAYSKGGKDETVETVENFLQIPIDKYVTVDFDGFKDVINEVGGIDVDVPFDFDEKSDVDESKRIYFKKGEMHLNGEEALAYARMRKQDKRGDFGRNDRQKQILNALIDRMSSASNIAKIDKIAEKASENVETNIRITEGLALQQIYSGFTSKKIDTLSITGSDLYLGPNNTYYFEPDATNLEKVRKTLQEHLDYTPLEHHHHHH,soluble
12,GSIGLEAEIETTTDETDDGTNTVSHILNVLKDATPIEDVFSFNYPEGIEGPDIKYKKEHVKYTYGPTFLLQFKDKLNVKADAEWVQSTASKIVIPPGMGR,soluble
13,GSHMRLGAQSIQPTANLDRTDDLVYLNVMELVRAVLELKNELAQLPPEGYVVVVKNVGLTLRKLIGSVDDLLPSLPSSSRTEIEGTQKLLNKDLAELINKMRLAQQNAVTSLSEECKRQMLTASHTLAVDAKNLLDAVDQAKVLANLAHPPAE,soluble
14,MGSDKIHHHHHHMGCKSVYADSCWISSPTLNFGSVNTQQVSSKTDLDVTCNQYNNVKTSFNLCFYIEDNSPLGINPRRLISLSWPFDYLNYDLYYDPSFSRMIDNKAAPNNLLCKSLQIENNGQQTVQIPIYGKVYANQNVKADNYQSYNMTVKLLYKSKTGDVVPSVEETLAQQNMVQNYMKTTTKFENSCAVVGVNTLDFGSIISLNQPIYGQTSIQLKCPTNTALKVGLDTGLYASGTQRRMTNAGQFIQYDLYQDSAYSIAWGTSDNSVLKLDTYQPVFTIPVYGRILPQNQNLKAGEYRDTITIKLTY,not soluble
15,MELPSMNVPFSRYCWVTLTIQDHLPIDSFRSLNLSITNDNYSGGDLKAYPADFNGILAGNWFTFSPVTYSMKLQYNYTNGAEEATRVRVYCKSPLPYWLPYCG,not soluble
16,MSLKKLISGIIAVAMALSLAACQKETKVISLSGKTMGTTYHVKYLDDGSITATSEKTHEEIEAILKDVNAKMSTYKKDSELSRFNQNTQVNTPIEISADFAKVLAEAIRLNKVTEGALDVTVGPVVNLWGFGPEKRPEKQPTPEQLAERQAWVGIDKITLDTNKEKATLSKALPQVYVDLSSIAKGFGVDQVAEKLEQLNAQNYMVEIGGEIRAKGKNIEGKPWQIAIEKPTTTGERAVEAVIGLNNMGMASSGDYRIYFEENGKRFAHEIDPKTGYPIQHHLASITVLAPTSMTADGLSTGLFVLGEDKALEVAEKNNLAVYLIIRTDNGFVTKSSSAFKKLTETKEEGGSHHHHHH,soluble
17,MDNKLDVFRRELVDVEGIPLFWSIAEHWSQVESFEARPDDILISTYPKSGTTWVSEILDLIYNNGDAEKCKRDAIYKRVPFMELIIPGITNGVEMLNNMPSPRIVKTHLPVQLLPSSFWKNDCKIIYVARNAKDVVVSYYYFYQMAKIHPEPGTWEEFLEKFMAGQVSFGPWYDHVKSWWEKRKEYRILYLFYEDMKENPKCEIQKILKFLEKDIPEEILNKILYHSSFSVMKENPSANYTTMMKEEMDHSVSPFMRKGISGDWKNQFTVAQYEKFEEDYVKKMEDSTLKFRSEI,soluble
18,MSLMKLTKLFLATAISLGVSSAVLAADYDLKFGMNAGTSSNEYKAAEMFAKEVKEKSQGKIEISLYPSSQLGDDRAMLKQLKDGSLDFTFAESARFQLFYPEAAVFALPYVISNYNVAQKALFDTEFGKDLIKKMDKDLGVTLLSQAYNGTRQTTSNRAINSIADMKGLKLRVPNAATNLAYAKYVGASPTPMAFSEVYLALQTNAVDGQENPLAAVQAQKFYEVQKFLAMTNHILNDQLYLVSNETYKELPEDLQKVVKDAAENAAKYHTKLFVDGEKDLVTFFEKQGVKITHPDLVPFKESMKPYYAEFVKQTGQKGESALKQIEAINPEGGSHHHHHH,soluble
19,MNPKSSLADGAHIGNYQIVKTLGEGSFGKVKLAYHTTTGQKVALKIINKKVLAKSDMQGRIEREISYLRLLRHPHIIKLYDVIKSKDEIIMVIEYAGNELFDYIVQRDKMSEQEARRFFQQIISAVEYCHRHKIVHRDLKPENLLLDEHLNVKIADFGLSNIMTDGNFLKTSCGSPNYAAPEVISGKLYAGPEVDVWSCGVILYVMLCRRLPFDDESIPVLFKNISNGVYTLPKFLSPGAAGLIKRMLIVNPLNRISIHEIMQDDWFKVDLPEYLLEHHHHHH,soluble
20,MGSDKIHHHHHHLASHHSLLNHQRHFERIGPDYRNGDSVSFLDIKHTFGLQHIRVGKWVNREESALAANLIFDSLADLANILAVPPELIGLRGSLRFAFGHGGQKGVQAHYSPAYRELALAKNAGAGALAHEFWHAFDHYIADKMFIDDSILDPYLSSLILSEQTTNTTRTNFSRANLFACASDNWLADKSIIAHPLNKKLSSLFKVTLLSANGQEPHDYVRRSIALDKQQRSHYFAKPTEMMARAFESCIEMYSQDYANISNPYLVNSTIDSPLAKHGAYPDAQHCREIYQAMMEYFEPLGLAFDKQNGQK,not soluble
21,TLVRVKKSAATLGIAIEGGANTRQPLPRIVTIQRGGSAHNCGQLKVGHVILEVNGLTLRGKEHREAARIIAEAFKTKDRDYIDFLVTEFN,soluble
22,MSLNFDSLLLDIDGTLILKGQPLPGAAEALSFARAQGLRLQLLTNTTAKMPEALAQELCQAGIEVVPDEIQTATTACVGYLQQHAQLKCHLLVPDSIRAAFNGILTDDTNPDVVVISDIGEAFDYATLNRCFRMLRGGARLIALQKNLFWFDRDGERLDCGAFIVGLEAAAQVQALVMGKPSPMFFEAALRKLDTCASRTLVVGDDVLTDCAGAKAVGASSLLVRTGKYDLALFDAHRHNVGAVIDGIADFPRWWASGNTADRHDEGHHHHHH,soluble
23,MGSDKIHHHHHHMKKLLAIGILCIMVTAVMSGCVSEKEININNSNKITTNMPVSEKNITKILKYAKNMNLIYYDENGNIVNPYNGDKWKYKVFIDATGQKFLLKNKDDPVPSWAKEKLGDNFKVINVPLTRVIVMSSTEIALMEAINDDGSVIGSVKGIMWGKSYKWYFKDINKSLAEGKIIDVGSSSNPNWDKIIEINPQVIFVYPGYDGDKIIAKCKELGITYVADAEYLENDPLGRCEWVKMFAAFYNKEPEAKRYFEKVEDNCLKVINKTKNCPKVTVAWGYNSQWGCYVPENNSYVAKEIMFYCNGDYIFKDLNGTGSAKINYETFAERAKDADVWVVPSSTAWLSTFKEDNPGYETFKAVKNGRVFCESDDYWQLGLLKTDEVIMDLATILHPEAFKGRKTHFFLKYNIENNTATPFIAK,not soluble
24,MGLLVDGRWQDQWYESSKDGAFQRENAQRRNWVTRDGQAGPSGEGGFAAEAGRYHLYVSLACPWAHRTLILRKLKGLEKLIDVSVVSWLMLENGWTFDQQKGSSGDALDDFQFFHQRYTADDPRYTGRVTVPVLWDKQQQRIVSNESAEIIRMFNAAFDELTGNTLDFYPSALQSSIDELNEQIYPKVNNGVYRAGFATSQGAYEEAFDDVFAELDVLENLLGEKRYLTGKHLTEADIRLFTTIVRFDAVYYSHFKCNLRRIADYPNLSNWLRELYQWPGIAETVDFEHIKGHYYASHRTINPTGIIPKGPALDLQAGHDRERLSGEGAWSK,not soluble
25,MITLREFKEENTAQLTHILNEPEVVKYLSSKIPKPDTLQDAQWWISTGSKFGIVKAIECNGSLIGCIGADRGEFEYQRSAEIGYWIAKDYWRQGVATQAISELIPLIFTTTDIVRLFASVFSENTASMRVLDKCGLKLEAIHKKAIYKDGKFYDNHIFSILKT,not soluble
